{"source": "the DeepSol protein solubility set", "data": [{"assay": "soluble on expression in E. coli; label from the status in PepcDB or PDB records", "values": [{"sequence": "ADDILNVHRRNAKDPFAVGAVDAPLVITEFSDFECPFCARWSNQTEPTLMEEYVSKGLVRIEWNDLPVNGEHALAAAKAGRAAAAQGKFDEFRKALFEASRNVSGHPNNTLKDFERFARNAGVKDMERFSREAQDSTYDEVLTKAADYAHGLGVSGTPAFVVGTQYISGAQPTEEFIKVIESELKKSPTFSTPSSHQN", "soluble on expression in E. coli": "not soluble"}, {"sequence": "MGSDKIHHHHHHMKVKAPGRINIIGEHTDYNDGYVLPFAVNRYVFLSIEGSERFIFHSENVNETVEMEKIEKLNKWTDYISGVIASFEKRGYRVSPVKISVSSNLPIGAGLSSSAALEVATAYAISEYFGFNVPKLELVKIAREAEVEFVGVRCGIMDQFTAVFGKKDHAIFLDTMTLEYEYVPLKLEGYEINLVDSNVKHELSSSEYNRRRQECEEVLKTLEKKSFREVTKEDLERLSGTLRKRAQHVLEENERVLKSVQALKEGDFETLGKLLFSSHESLRDLYEVSCEETDFIVDYLRGKEGILGARMVGGGFGGGVIVLSKKGAFGKIKEELVESYRKRFGIDLIFHEIESSDGVQKI", "soluble on expression in E. coli": "not soluble"}, {"sequence": "MKELTNEELRGIQLEQLKYIDRICRENGIEYTLAGGSLIGAIRHGGYIPWDDDIDIELTRPHYDHLISVLMDQLPNEKYALLHYKVRETYLPFAKLYDTRTSFTSKIDNLNRGTGVFLDIFPMDILPDNEEERQVFKKEFLKKAIQLTASNPHGLDFASSSKKIYFWGKLVLWMPQHIRFYGKYRILAEKLDEFMQKYRNSDNQLISYLYTGYKKAIFPKEIWEEYEDVKFEGLTARKLKNHEEYLTRQYGDYMKLPPENERVNHDYYKWYWKEKNEILEHHHHHH", "soluble on expression in E. coli": "soluble"}, {"sequence": "MGSDKIHHHHHHMSKPSPRHLWHVQPGSNVITHPLKQSHYLNVELMSLEIVAEYPRPPALVACSDHVIVEALGTRICETHDCLRVLETFHPPTYYLPPKAMRKDLLIRSRRSSFCEWKGIANYWDLVIADKRLEGAIWSYPDPTPTFRALTGWYALYPGRMDHCSVNGETVIPQPGQFYGGWITSQVVGPFKGDPAHPQLI", "soluble on expression in E. coli": "not soluble"}, {"sequence": "MRARSSLSAGQREELVALFEQGYSYWAAAHHVGVGVYPVRALFRRFLLHGKLCLVEKPSKQQYSFEIKKEVVQRHLAGESKMDLAREFGLSSDQMVGYWSRKWRKGGDDALKLKPKGRPKGSAKPKVLTEEDKLRRENERLRAENAYLKKLRDLKNQGHALEHHHHHH", "soluble on expression in E. coli": "not soluble"}, {"sequence": "MTTMGEDEAPALPKKSPLPEKIDEADVDDDPDDKVIKIVVVGDGASGKTSICQRFAKESFDKSYHQTLGLDFFSRRITLPHEMQVLVQVWDIGGQSIAGEMIDKYLTGANIVFLVYDVTNSKSFENAVDWLSVVKKNTKSSETPVKLVLMGNKTDLEERRVVSVEAHKNFATSNDMMPTYVSAKTGDTVFLTFRQAVAEVLNVGLSRAEVEADIEIVQGSVIEQPKQSDASYARRSDQSRSTSVCSIT", "soluble on expression in E. coli": "soluble"}, {"sequence": "SLLSETSTALGLQELSNITMPVIFNEPLSFLQRLTEYMEHTYLIHKASSLSDPVERMQCVAAFAVSAVASQWERTGKPFNPLLGETYELVRDDLGFRLISEQVSHHPPISAFHAEGLNNDFIFHGSIYPKLKFWGKSVEAEPKGTITLELLDHNEAYTWTNPTCCVHNIIVGKLWIEQYGNVEIINHKTGDKCVLNFKPCGLFGKELHKVEGYIQDKSKKKLCALYGKWTECLYSVDPATFDAYKKNDKKNTEEKKNSKQTSSSEESDEMPVPDSESVFIIPGSVLLWRIAPRPPNSAQMYNFTSFAMVLNEVDKEMESVIPKTDCRLRPDIRAMENGEIDLASEEKKRLEEKQRAARKNRSKSEEDWKTRWFHQGPNPYSGAQDWIYSGSYWDRNYFNLPDIY", "soluble on expression in E. coli": "soluble"}, {"sequence": "MNYAEICIIKRDGKREDFSISKIKNAIGKAFHASGIDNEDKLIAEITMRVISNFVSPTISVEEIQDLVEKELMKVRPEVAKKYIIYREWRNTERDRKTQMKHIMDGIVAIDKNDVNLSNANMSSHTPAGQMMTFASEVTKDYTYKYLLPKKYAEAHQLGDIHIHDLDYYPTKTTTCIQYDLDDLFERGFRTKNGSIRTPQSIQSYATLATIIFQTNQNEQHGGQAIPAFDFFMAEGVRKTFRKHLKTLTEFYIEVEGKEPGTEALKKIEEKAYAMTRKDTHQAMEGFIHNLNTMHSRGGNQVVFSSINYGTDTSPEGRMVIEELLKATIEGLGTRGEVPVFPIQIFKVKDGVSYSEEDYKKAMENFEAALEGKMEFQAPNFDLFLKACRTTAKALFPNFMFLDTPYNKNEKWDIKDPKRYRYELATMGCRTRVYENIAGEKSSLGRGNLSFTTMNMPRLAIEARIKAESLEESGKKEAIERKAKEIFIESVHALSELIAEQLYARYQYQRTALARQFPFMMGNDVWKGGGKLSPNDQVGDVLRQGTLGIGFIGGHNAMMALYGEGHAHSQKAWDTLFEAVTEMNKVADEYKQKYQLNFSVLATPAEGLSGRFTRMDRRKYGIIPGVTDNDYYVNSFHVDVKEPITITEKIKREAPFHAITRGGHITYVELDGEAQKNVKAIAKIVKVMHDEGIGYGSINHPVDTCQACGYKGVIYDKCPVCQSENIMRMRRITGYLTGDLSTWNSAKRAEERDRVKHG", "soluble on expression in E. coli": "not soluble"}, {"sequence": "MNYFGKLQIRFSKSFLLLLIVSSLTACVDLTGARNTYIKKEKQPAISDVPNKKSKAQNMSSKKGEVHTMLGGLGIFSKGMYTLRDKVSEKYHITAHSTMWYNAGAVSRYIIDHYYQEKDHKPIILVGHSLGANEQIKVARNLNAAGVPVALLVTVDAVSQTIVPPNVKQALNVYKPGFVPMFSGLKLRAVDPQLTKIDNINVDSIKGIKVNHFTIDKDEILQAMIMDKVDKVLVDGNKKGA", "soluble on expression in E. coli": "not soluble"}, {"sequence": "MFMGKLPHQADLIGALIEAAGANGIRAGAIQVIGALQGAKLGFYDQWSKSYRELPFAKPLEIVSGLGNISLRDGRPFVHLHLSISDEEGKVFGGHALEGCTIFAAEYAIMPLPGSAPVRVFDETTGLFLWEREQYPASGQKGLSPELERALLNPLEHHHHHH", "soluble on expression in E. coli": "soluble"}, {"sequence": "MLTDLEKNAIRDHYQNIGKNLPGFRPRASQREMIAAVANAFSRTLAREEGGEPPKREGESIAVIEGPTGVGKSLAYLLAGGIMAQTRGKRLIVSSATVALQEQLVDRDLPFLVEKSGLELTFALAKGRGRYLCPYKLYRLTQSNAQQNLLGFEAPAVLWDSKPKPEELKLLRDIADEFSARRFNGDRDTWPEKIDDAIWLKVTNDRHGCLKTACPNRPECPFYLARDVLETVDVVVANHDLLLADISMGGGVILPAPENSFYCIDEAHHLPKKALSRFAAEHSWNIAVWTLEKLPQLTGKIAALTDKAELANLADEAAASLLDSLHEWQFHLAEEPSLSLGVSENDRRTNSEPTWLWEDGKIPEGLETTVSNTAIAARSLLKHVIGLNDALSAARREKEQDGALLDRLTSEFGLFIARIEQISAVWDLLSTVPLEGEEPLAKWITRRADDKNDYIFNASPISSASHLANSLWRRAAGAVLTSATLQSLGNFNLMLRQTGLQWLPETTTLALKSPFDFEKQGELYIPPIYASPKDPEAHTAAVIEWLPKLISPTEAIGTLVLFSSRKQMQDVALRLPGDYLPLLLVQGELPKAVLLQKHHRAIEEGKASIIFGLDSFAEGLDLPGTACVQVIIAKLPFAMPDNPIEKTQNRWIEQRGGNPFIEITVPEAGIKLIQAVGRLIRTEQDYGRVTILDNRIKTQRYGQQLLAGLPPFKRIG", "soluble on expression in E. coli": "not soluble"}, {"sequence": "SSSLHKSRIADFQDVLKEPSIALEKLRELSFSGIPCEGGLRCLCWKILLNYLPLERASWTSILAKQRELYAQFLREMIIQPGIAKANMGVSREDVTFEDHPLNPNPDSRWNTYFKDNEVLLQIDKDVRRLCPDISFFQRATDYPCLLILDPQNEFETLRKRVEQTTLKSQTVARNRSGVTNMSSPHKNSAPSSLNEYEVLPNGCEAHWEVVERILFIYAKLNPGIAYVQGMNEIVGPLYYTFATDPNSEWKEHAEADTFFCFTNLMAEIRDNFIKSLDDSQCGITYKMEKVYSTLKDKDVELYLKLQEQNIKPQFFAFRWLTLLLSQEFLLPDVIRIWDSLFADDNRFDFLLLVCCAMLMLIREQLLEGDFTVNMRLLQDYPITDVCQILQKAKELQDSK", "soluble on expression in E. coli": "soluble"}, {"sequence": "MGSDKIHHHHHHMASVMSNNNNNNNNNNASYMFTNPLSNTGGGLINEIKDAINEMEQLKVLELKQICKSLDLSITGKKAVLQDRIKQFLRKSCDIGHIDPWRPKAIKILIAKVRINSSLPKYSTLWETLKTGAFKHPVASGQLPVTALQSTALPPYSQQQALAYSFTSPFYKPIVQIPDANKKLKQSAGRGCTKMKFKVSKSNHDLLKSNKSYKLYLFSGFSIPFIYETVGHEAIDFPYPCELVFNGTKLEDNVKGLKKQNGTGNPANLTPYLKVPTEMNHLDLHYLNIDKEYSISCFIVEVFSPEALLGKILKRPKIIKQATTAYIKRTLNEQDDDDIITTSTVLSLQCPISCTRMKYPAKTDQCKHIQCFDALWFLHSQSQVPTWQCPICQHPIKFDQLKISEFVDNIIQNCNEDVEQVEISVDGSWKPIHNSSAVITDTVNQNHSVKNENQGTVKQEQDYDSRNAFDTNLRNGSNHNEPEIISLDSSDDEAFIPASKSFPTHVNPRNDQLRADIFPSESEGSSDYNPNHTSTPKGSPTMDQDNYQDAFQMRSFLNQGATTNINDTPTNNSSINSFVTATNGDSRIFYNRGPSTPLLPAVLQNLTNQTEAQRNPYGPNYNTTAQDRNLLGIEGDLPPIPPVDPNSEAETELPTRTTSAAHLPPYIHVSTSGHGDDGKIRKRRHSNVSIYIPKNPYATLMKRRPQANHAIMNKTLAQTNDFNTSAQDNSEVVDLTSD", "soluble on expression in E. coli": "not soluble"}, {"sequence": "DREELDKQLRHERERFRLLVDAVENYAIFLLDPDGLIQSWNVGAKQLTQYEESDILGEHVSTFHTEKQVADGIPEQLLQEAEECGKAIDRGLRVRKDGSTFWADVTVTALQENSDARGFAKVIKDIT", "soluble on expression in E. coli": "not soluble"}, {"sequence": "MTKHVAVLLAHGFEEAEAVIFIDIMRRLDIRVDILSCEATTALSTYFETPISADALLSDRLDHHYDAVMMPGGPKGTDSLTANPQVIAFLRRHIAQDKYICALCSSGAKVLAAHHLLAGRTYSTGDKLADKFADGAYLDQDVVVDGKFITAKGLGVSFEFAFTVARHLLSDNLPKVEHQASHIYFKHGSAQT", "soluble on expression in E. coli": "not soluble"}, {"sequence": "MSEVPHFVLYEHAAGYALMKIKEFDDAGLILQEVDAAHADGYKFSQIVELASFDPFKNTEAALENCNSISEGLAHPDLTNFLQKSLPKKKKHVVLGINDSKLAGSLTEAFPDLKLVFGGVITEILRGTRVHFERLAKNLPHHSLSKAQLSLGHSYSRSKVKFDVHRVDNMVIQSIALLDQLDKDINLFGMRIREWYSYHYPELFRLAPDQYKYSRLAVAILDRNKMAENENLENEILEILDNDSEKTAQIIEAARTSMGMDISDLDLENIKRFAARVSSLMEYRQQLHEYIKDRMDHCAPSLSALIGEQVGARLISHAGSLTNLAKYPASTVQILGAEKALFRALKTRSNTPKYGLLFHSSFIGKAGTKNKGRVSRYLANKCSIAARVDCFSETPVSTYGEFLRQQVEDRLEYFTSGTVPKKNIDVMKEAEEAAVEVKEKVIKKKKKAAKKAKRLAEESVTATAEAEVDEDAPKPKKKKKSKAGDE", "soluble on expression in E. coli": "not soluble"}, {"sequence": "MGSDKIHHHHHHMTVMNAYQELESQGLIYSKEKSGYFVAEQIALKPLEQYSIVSLNSKIEINSLVFKYLKSIQHESVVPFGSAFPDSQLLAAPKLIQIMGQLARQRQSYDQTASLPPGNLALRKLIAQRYCMQGIQTDPDDIVITSGGLDALNLSLQAVAKPGDYILLQQTVFYGAWQAAERLGLKVITIPEHPQHGFDLEAFEQVIHTYPIKVCWLMLNSHNPIGFTVSDEIKYKIAKLLHEHQIYLIEDDVYEELYYGGQKPLSMKYFDQQNLVLHCSSFSKTLGAGFRVGWVYAGKFSDHIQHLQLMSTISVNALIQNALVEFLSHHHYEKHLRTLRLSLERYKKQFYHYLKQHLPAICEIYYYPSGYFLWVKLPHKLDSMQIYEELIQQDIGVAPSPLFSVLPAQQHYLRINCSFEWNEKIQAALDQVIKTIQQRVEASL", "soluble on expression in E. coli": "not soluble"}]}]}
